Reference: patent US20150285818A1, “Switchable Reporter Enzymes for Homogenous Antibody Detection” (TECHNISCHE UNIVERSITEIT EINDHOVEN, priority 2012, published 2015)

B1: Abs-1: TEM1 β-lactamase fused via linker with WEKIRLR epitopes to weak-binding RRGHYY peptide inhibitor; SEQ ID NO: 12 (protein)
chain: MSIQHFRVALIPFFAAFCLPVFAHHHHHHLVPRGSHPETLVKVKDAEDQLGARVGYIELDLNSGKILESFRPEERFPMMSTFKVLLCGAVLSRIDAGQEQLGRRIHYSQNDLVEYSPVTEKHLTDGMTVRELCSAAITMSDNTAANLLLTTIGGPKELTAFLHNMGDHVTRLDRWEPELNEAIPNDERDTTMPVAMATTLRKLLTGELLTLASRQQLIDWMEADKVAGPLLRSALPAGWFIADKSGAGERGSRGIIAALGPDGKPSRIVVIYTTGSQATMDERNRQIAEIGASLIKHWTSGGWEKIRLRGGSGGSGGSGGSGGSGGSGAEAAAKEAAAKEAAAKEAAAKEAAAKEAAAKAGSGGSGGSGGPQGILGQGSGGSGGSGGSGAEAAAKEAAAKEAAAKEAAAKEAAAKEAAAKAGSGGSGGSGGSGGSGGSGGWEKIRLRGGSGGSHGRRGHYYGEFGGWSHPQFEK
B2: Abs3-1: Abs-3 variant with E104D in β-lactamase and E31A in BLIP; SEQ ID NO: 22 (protein)
chain: MSIQHFRVALIPFFAAFCLPVFAHHHHHHLVPRGSHPETLVKVKDAEDQLGARVGYIELDLNSGKILESFRPEERFPMMSTFKVLLCGAVLSRIDAGQEQLGRRIHYSQNDLVDYSPVTEKHLTDGMTVRELCSAAITMSDNTAANLLLTTIGGPKELTAFLHNMGDHVTRLDRWEPELNEAIPNDERDTTMPVAMATTLRKLLTGELLTLASRQQLIDWMEADKVAGPLLRSALPAGWFIADKSGAGERGSRGIIAALGPDGKPSRIVVIYTTGSQATMDERNRQIAEIGASLIKHWTSGGELDRWEKIRLRPGGSGGSGGSGGSGGSGGSGAEAAAKEAAAKEAAAKEAAAKEAAAKEAAAKAGSGGSGGSGGSGGSGGSGAEAAAKEAAAKEAAAKEAAAKEAAAKEAAAKAGSGGSGGSGGSGGSGGSGGELDRWEKIRLRPGGSHGAGVMTGAKFTQIQFGMTRQQVLDIAGAENCATGGSFGDSIHCRGHAAGDYYAYATFGFTSAAADAKVDSKSQEKLLAPSAPTLTLAKFNQVTVGMTRAQVLATVGQGSCTTWSEYYPAYPSTAGVTLSLSCFDVDGYSSTGFYRGSAHLWFTDGVLQGKRQWDLVGEFGGWSHPQFEK
B3: Abs3-2: Abs-3 variant with E104D in β-lactamase and F142A in BLIP; SEQ ID NO: 37 (protein)
chain: MSIQHFRVALIPFFAAFCLPVFAHHHHHHLVPRGSHPETLVKVKDAEDQLGARVGYIELDLNSGKILESFRPEERFPMMSTFKVLLCGAVLSRIDAGQEQLGRRIHYSQNDLVDYSPVTEKHLTDGMTVRELCSAAITMSDNTAANLLLTTIGGPKELTAFLHNMGDHVTRLDRWEPELNEAIPNDERDTTMPVAMATTLRKLLTGELLTLASRQQLIDWMEADKVAGPLLRSALPAGWFIADKSGAGERGSRGIIAALGPDGKPSRIVVIYTTGSQATMDERNRQIAEIGASLIKHWTSGGELDRWEKIRLRPGGSGGSGGSGGSGGSGGSGAEAAAKEAAAKEAAAKEAAAKEAAAKEAAAKAGSGGSGGSGGSGGSGGSGAEAAAKEAAAKEAAAKEAAAKEAAAKEAAAKAGSGGSGGSGGSGGSGGSGGELDRWEKIRLRPGGSHGAGVMTGAKFTQIQFGMTRQQVLDIAGAENCETGGSFGDSIHCRGHAAGDYYAYATFGFTSAAADAKVDSKSQEKLLAPSAPTLTLAKFNQVTVGMTRAQVLATVGQGSCTTWSEYYPAYPSTAGVTLSLSCFDVDGYSSTGAYRGSAHLWFTDGVLQGKRQWDLVGEFGGWSHPQFEK
B4: Abs2-2: Abs3-2 with the large epitope changed for the shorter WEKIRLR epitope; SEQ ID NO: 20 (protein)
chain: MSIQHFRVALIPFFAAFCLPVFAHHHHHHLVPRGSHPETLVKVKDAEDQLGARVGYIELDLNSGKILESFRPEERFPMMSTFKVLLCGAVLSRIDAGQEQLGRRIHYSQNDLVDYSPVTEKHLTDGMTVRELCSAAITMSDNTAANLLLTTIGGPKELTAFLHNMGDHVTRLDRWEPELNEAIPNDERDTTMPVAMATTLRKLLTGELLTLASRQQLIDWMEADKVAGPLLRSALPAGWFIADKSGAGERGSRGIIAALGPDGKPSRIVVIYTTGSQATMDERNRQIAEIGASLIKHWTSGGWEKIRLRGGSGGSGGSGGSGGSGGSGAEAAAKEAAAKEAAAKEAAAKEAAAKEAAAKAGSGGSGGSGGPQGILGQGSGGSGGSGGSGAEAAAKEAAAKEAAAKEAAAKEAAAKEAAAKAGSGGSGGSGGSGGSGGSGGWEKIRLRGGSGGSHGAGVMTGAKFTQIQFGMTRQQVLDIAGAENCETGGSFGDSIHCRGHAAGDYYAYATFGFTSAAADAKVDSKSQEKLLAPSAPTLTLAKFNQVTVGMTRAQVLATVGQGSCTTWSEYYPAYPSTAGVTLSLSCFDVDGYSSTGAYRGSAHLWFTDGVLQGKRQWDLVGEFGGWSHPQFEK
B5: Abs-2: TEM1 β-lactamase fused via linker with WEKIRLR epitopes to BLIP protein as inhibitor domain; SEQ ID NO: 13 (protein)
chain: MSIQHFRVALIPFFAAFCLPVFAHHHHHHLVPRGSHPETLVKVKDAEDQLGARVGYIELDLNSGKILESFRPEERFPMMSTFKVLLCGAVLSRIDAGQEQLGRRIHYSQNDLVEYSPVTEKHLTDGMTVRELCSAAITMSDNTAANLLLTTIGGPKELTAFLHNMGDHVTRLDRWEPELNEAIPNDERDTTMPVAMATTLRKLLTGELLTLASRQQLIDWMEADKVAGPLLRSALPAGWFIADKSGAGERGSRGIIAALGPDGKPSRIVVIYTTGSQATMDERNRQIAEIGASLIKHWTSGGWEKIRLRGGSGGSGGSGGSGGSGGSGAEAAAKEAAAKEAAAKEAAAKEAAAKEAAAKAGSGGSGGSGGPQGILGQGSGGSGGSGGSGAEAAAKEAAAKEAAAKEAAAKEAAAKEAAAKAGSGGSGGSGGSGGSGGSGGWEKIRLRGGSGGSHGAGVMTGAKFTQIQFGMTRQQVLDIAGAENCETGGSFGDSIHCRGHAAGDYYAYATFGFTSAAADAKVDSKSQEKLLAPSAPTLTLAKFNQVTVGMTRAQVLATVGQGSCTTWSEYYPAYPSTAGVTLSLSCFDVDGYSSTGFYRGSAHLWFTDGVLQGKRQWDLVGEFGGWSHPQFEK

Columns and labels:
anti-HIV1-p17 antibody [1] = assay: Reporter enzyme activity assay with nitrocefin and anti-HIV1-p17 antibody titration; conditions: 50 μM nitrocefin; for increase in enzymatic activity upon addition of 200 nM anti-HIV1-p17: 0.3 nM sensor, 200 nM antibody; for Kd: read-out: dissociation constant (Kd) of reporter enzyme for target antibody, fit of nitrocefin hydrolysis rate vs anti-HIV1-p17 concentration, 1:1 binding model, pH 7.0
anti-HIV1-p17 antibody [2] = assay: Reporter enzyme activity assay with fluorescent substrate CCF2-FA in buffer and serum
IgG mix = assay: Specificity of reporter enzyme activity towards nonspecific IgG mix; conditions: up to highest IgG concentration tested (2 μM)

Molecule | increase in enzymatic activity upon addition of 200 nM anti-HIV1-p17 (anti-HIV1-p17 antibody [1]) | increase in enzyme activity upon addition of 50 nM target antibody in serum (anti-HIV1-p17 antibody [2]; 5 nM sensor, 10% FBS, 10 μM CCF2-FA) [fold] | dynamic range with CCF2-FA as substrate (anti-HIV1-p17 antibody [2]; 1 μM CCF2-FA in buffer, 0.1 nM sensor) [fold] | enzymatic activity in absence of target antibody, 1 μM CCF2-FA compared to 50 μM nitrocefin (anti-HIV1-p17 antibody [2]; buffer) | enzymatic (background) activity in the absence of antibody (anti-HIV1-p17 antibody [1]) | Kd (anti-HIV1-p17 antibody [1]) [nM] | increase in enzyme activity with random mix of IgG proteins (IgG mix) | increase in enzyme activity upon addition of target antibody (anti-HIV1-p17 antibody [1]; saturating anti-HIV1-p17) [fold]
B1 | no increase in enzymatic activity |  |  |  |  |  |  | 
B2 |  | 10 | 9 | significantly lower | low background activity | 0.17 ± 0.03 | No significant increase | 
B3 |  |  |  |  | low background activity | 0.19 ± 0.02 | No significant increase | 
B4 |  |  |  |  |  | 108 |  | 1.8
B5 | no increase in activity |  |  |  | strongly inhibited |  |  | 
